The RNAGym collection of RNA variant scans (doi:10.1093/molbev/msab373)

B1: Azoarcus group I ribozyme (parent)
chain: GUGCCUUGCGCCGGGAAACCACGCAAGGGAUGGUGUCAAAUUCGGCGAAACCUAAGCGCCCGCCCGGGCGUAUGGCAACGCCGAGCCAAGCUUCGGCGCCUGCGCCGAUGAAGGUGUAGAGACUAGACGGCACCCACCUAAGGCAAACGCUAUGGUGAAGGCAUAGUCCAGGGAGUGGCGAAAGUCACACAAACCGG

Variants of: B1
Assay: reverse-splicing fitness (ratio to wild type); higher = more active; in vitro selection; Mg2+ level not given
Outline: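 An in vitro group I ribozyme library with randomized positions was T7-transcribed and gel-purified. In triplicate, 10 pmol RNA in EPPS pH 7.5 was reacted with 50 pmoles of a 30-nt RNA substrate for 1 h at 37 °C across several added MgCl2 levels (1–48 mM), then stopped with EDTA. Products were reverse transcribed from a substrate-complementary primer, PCR-amplified and sequenced (HiSeq 4000). Fitness is a variant's read proportion after selection over that before, normalised to wild type.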

Compared with A111C A120U A145U C150A C169U, A111C A120U A145U C150A C169A is lower in reverse-splicing fitness: 0.00653 for the first, 0.00263 for the second.

Going from A111C A120U A145U C150A C169G to A111C A120U A145G C169U U176G, the reverse-splicing fitness falls from 0.00604 to 0.00322.

Going from A111C A120U A145G C169U U176C to A111C A120U A145G C169U U176A, the reverse-splicing fitness falls from 0.0232 to 0.0138.

First: A111C A120U A145C C150G C169G U176C
Second: A111C A120U A145C C150G C169G U176A
The reverse-splicing fitness of the first is higher: 0.0032 for the first, 0.00265 for the second.

Going from A111C A120U A145C C150G C169G U176G to A111C A120U A145U C150G C169G, the reverse-splicing fitness rises from 0.00227 to 0.00663.

Going from A111C A120U A145U C150G C169A to A111C A120U A145U C150G C169U, the reverse-splicing fitness rises from 0.00366 to 0.00794.

First: A111C A120U C150U C169U
Second: A111C A120U C150U C169G
The reverse-splicing fitness of the first is higher: 0.0424 for the first, 0.0296 for the second.

First: A111C A120U C150U C169A
Second: A111C A120U A145G C150A U176G
The reverse-splicing fitness of the first is lower: 0.00639 for the first, 0.0111 for the second.

First: A111C A120U A145G C150A U176A
Second: A111C A120U A145G C150A U176C
The reverse-splicing fitness of the first is lower: 0.046 for the first, 0.0554 for the second.

Compared with A111C A145C C150G C169U, A111C A145C C150G C169G is lower in reverse-splicing fitness: 0.018 for the first, 0.0102 for the second.

First: A111C A145C C150G C169A
Second: A111C A120U A145U C150G C169U U176A
The reverse-splicing fitness of the first is higher: 0.00983 for the first, 0.00284 for the second.

Going from A111C A120U A145U C150G C169U U176G to A111C A120U A145U C150G C169U U176C, the reverse-splicing fitness rises from 0.00279 to 0.00398.

Compared with A111C A120U A145U C169U U176A, A111C A120U A145U C169U U176C is higher in reverse-splicing fitness: 0.0121 for the first, 0.0216 for the second.

First: A111C A120U A145U C169U U176G
Second: A111C A145C C150A U176G
The reverse-splicing fitness of the first is lower: 0.00286 for the first, 0.0323 for the second.

Going from A111C A145C C150A U176A to A111C A145C C150A U176C, the reverse-splicing fitness rises from 0.0687 to 0.104.

First: A111C A120U C150A C169G U176C
Second: A111C A120U C150A C169G U176G
The reverse-splicing fitness of the first is higher: 0.00434 for the first, 0.00245 for the second.

Compared with A111C A120U C150A C169G U176A, A111C A120U A145U C150G is higher in reverse-splicing fitness: 0.00448 for the first, 0.0737 for the second.

Compared with A111C A120U A145U C150A, A111C A120U A145U C150U is higher in reverse-splicing fitness: 0.0636 for the first, 0.491 for the second.

First: A111C A120U A145C C150G C169A U176C
Second: A111C A120U A145C C150G C169A U176G
The reverse-splicing fitness of the first is higher: 0.00297 for the first, 0.00224 for the second.

Going from A111C A120U A145C C150G C169A U176A to A111C A120U A145G U176G, the reverse-splicing fitness rises from 0.00246 to 0.0786.

Going from A111C A120U A145G U176A to A111C A120U A145G U176C, the reverse-splicing fitness rises from 0.221 to 0.277.

Compared with A111C A120U A145U C169A, A111C A120U A145U C169G is higher in reverse-splicing fitness: 0.00546 for the first, 0.0574 for the second.

Compared with A111C A120U A145U C169U, A111C A120U A145G C150A C169G is lower in reverse-splicing fitness: 0.0751 for the first, 0.0103 for the second.

First: A111C A120U A145G C150A C169A
Second: A111C A120U A145G C150A C169U
The reverse-splicing fitness of the first is lower: 0.0061 for the first, 0.0133 for the second.

First: A111C A120U A145U C150G C169A U176G
Second: A111C A120U A145U C150G C169A U176C
The reverse-splicing fitness of the first is lower: 0.00296 for the first, 0.0035 for the second.

Going from A111C A120U A145U C150G C169A U176A to A111C A120U A145U C150U U176A, the reverse-splicing fitness rises from 0.00343 to 0.182.

Compared with A111C A120U A145U C150U U176G, A111C A120U A145U C150U U176C is higher in reverse-splicing fitness: 0.0348 for the first, 0.215 for the second.

Compared with A111C A120G C150U C169A U176G, A111C A120G C150U C169A U176C is higher in reverse-splicing fitness: 0.00513 for the first, 0.0197 for the second.

Compared with A111C A120G C150U C169A U176A, A111C A120U A145C C150A C169A is lower in reverse-splicing fitness: 0.0176 for the first, 0.00208 for the second.

First: A111C A120U A145C C150A C169G
Second: A111C A120U A145C C150A C169U
The reverse-splicing fitness of the first is lower: 0.0044 for the first, 0.00533 for the second.

Compared with A111C A120G C150G C169G, A111C A120G C150G C169A is lower in reverse-splicing fitness: 0.0183 for the first, 0.0136 for the second.

Compared with A111C A120G C150G C169U, A111C A120U A145G C150G C169A U176A is lower in reverse-splicing fitness: 0.0177 for the first, 0.0118 for the second.

First: A111C A120U A145G C150G C169A U176G
Second: A111C A120U A145G C150G C169A U176C
The reverse-splicing fitness of the first is lower: 0.00554 for the first, 0.009 for the second.

Going from A111C A120G C150U U176A to A111C A120G C150U U176C, the reverse-splicing fitness rises from 0.0245 to 0.0344.

Compared with A111C A120G C150U U176G, A111C A120U A145C U176C is higher in reverse-splicing fitness: 0.00599 for the first, 0.17 for the second.

Compared with A111C A120U A145C U176G, A111C A120U A145C U176A is higher in reverse-splicing fitness: 0.0856 for the first, 0.244 for the second.

Compared with A111C A120U A145U C150A U176G, A111C A120U A145U C150A U176A is higher in reverse-splicing fitness: 0.0123 for the first, 0.0343 for the second.

Compared with A111C A120U A145U C150A U176C, A111C A120G C169U U176A is higher in reverse-splicing fitness: 0.0354 for the first, 0.0433 for the second.

First: A111C A120G C169U U176G
Second: A111C A120G C169U U176C
The reverse-splicing fitness of the first is lower: 0.00657 for the first, 0.0498 for the second.

Going from A111C A120G C150U C169G U176C to A111C A120G C150U C169G U176G, the reverse-splicing fitness falls from 0.0349 to 0.00581.

Compared with A111C A120G C150U C169G U176A, A111C A120U C150G C169G U176A is lower in reverse-splicing fitness: 0.0233 for the first, 0.00481 for the second.

With A111C A120U C150G C169G U176C the reverse-splicing fitness was 0.0039.
